# Source: patent US20180086821A1 (MAYO FOUNDATION FOR MEDICAL EDUCATION AND RESEARCH, published 2018)
# Experiments:
# mouse albumin = molecular target: T1, mouse albumin (mouse, UniProt P07724 25-608); assay: direct ELISA, antigen coated at 5 µg/ml
# T1 construct: Bought from Sigma
# Method: (§1) Human RBC spectrin, bovine myosin (heavy chain), mouse albumin, mouse hemoglobin, mouse transferrin, hen egg lysozyme, rabbit actin, rabbit myelin basic protein, and keyhole limpet hemocyanin (KLH) were purchased from Sigma. Proteins were tested for purity by SDS-polyacrylamide gel electrophoresis. […] Protein antigens were used at 5 μg/ml, and hapten was used at 2 μM. The proteins and hapten-BSA antigens were coated onto polystyrene or polyvinylchloride microtiter plates in 0.1 M carbonate buffer, pH 9.5, for 18 hours at 4° C. Coated plates were blocked with PBS containing 5% nonfat dry mild and 0.05% Tween 20 for 2 hours at room temperature, and incubated with mAbs diluted in blocking buffer (2 μg/ml) for 4 hours at room temperature. […] Bound IgM was detected with biotinylated goat anti-mouse IgM (p chain specific; Jackson Immunoresearch, West Grove, Pa.) followed by alkaline phosphatase conjugated to streptavidin, with p-nitrophenylphosphate as the chromogenic substrate. Absorbance was determined at 405 nm.
# mouse hemoglobin = molecular target: T2, mouse hemoglobin (mouse, UniProt P01942 2-142; P02088 2-147); assay: direct ELISA, antigen coated at 5 µg/ml
# T2 construct: Bought from Sigma; also called Mo Hb
# Method: as §1
# [1] = molecular target: T3, rabbit myelin basic protein (rabbit, UniProt P25274 1-168); assay: direct ELISA, antigen coated at 5 µg/ml
# T3 construct: Bought from Sigma; also called rabbit MBP
# Method: as §1
# hen egg lysozyme = molecular target: T4, hen egg lysozyme (hen (chicken), UniProt P00698 19-147); assay: direct ELISA, antigen coated at 5 µg/ml
# T4 construct: Bought from Sigma; also called HEL
# Method: as §1
# mouse transferrin = molecular target: T5, mouse transferrin (mouse, UniProt Q921I1 20-697); assay: direct ELISA, antigen coated at 5 µg/ml
# T5 construct: Bought from Sigma
# Method: as §1
# human RBC spectrin [2] = molecular target: T6, human RBC spectrin (human, UniProt P02549 1-2419; P11277 2-2137); assay: direct ELISA, antigen coated at 5 µg/ml
# T6 construct: Bought from Sigma; also called human erythrocyte spectrin
# Method: as §1
# [3] = molecular target: T7, bovine serum albumin (BSA) (bovine, UniProt P02769 25-607); assay: solid-phase ELISA
# T7 construct: Carrier alone, without hapten; also called carrier protein BSA
# human RBC spectrin [4] = molecular target: T6, human RBC spectrin; assay: direct ELISA, mAb at 2 µg/ml
# Method: as §1
# T6 sequence (P02549 whole entry, chain 1 of 2): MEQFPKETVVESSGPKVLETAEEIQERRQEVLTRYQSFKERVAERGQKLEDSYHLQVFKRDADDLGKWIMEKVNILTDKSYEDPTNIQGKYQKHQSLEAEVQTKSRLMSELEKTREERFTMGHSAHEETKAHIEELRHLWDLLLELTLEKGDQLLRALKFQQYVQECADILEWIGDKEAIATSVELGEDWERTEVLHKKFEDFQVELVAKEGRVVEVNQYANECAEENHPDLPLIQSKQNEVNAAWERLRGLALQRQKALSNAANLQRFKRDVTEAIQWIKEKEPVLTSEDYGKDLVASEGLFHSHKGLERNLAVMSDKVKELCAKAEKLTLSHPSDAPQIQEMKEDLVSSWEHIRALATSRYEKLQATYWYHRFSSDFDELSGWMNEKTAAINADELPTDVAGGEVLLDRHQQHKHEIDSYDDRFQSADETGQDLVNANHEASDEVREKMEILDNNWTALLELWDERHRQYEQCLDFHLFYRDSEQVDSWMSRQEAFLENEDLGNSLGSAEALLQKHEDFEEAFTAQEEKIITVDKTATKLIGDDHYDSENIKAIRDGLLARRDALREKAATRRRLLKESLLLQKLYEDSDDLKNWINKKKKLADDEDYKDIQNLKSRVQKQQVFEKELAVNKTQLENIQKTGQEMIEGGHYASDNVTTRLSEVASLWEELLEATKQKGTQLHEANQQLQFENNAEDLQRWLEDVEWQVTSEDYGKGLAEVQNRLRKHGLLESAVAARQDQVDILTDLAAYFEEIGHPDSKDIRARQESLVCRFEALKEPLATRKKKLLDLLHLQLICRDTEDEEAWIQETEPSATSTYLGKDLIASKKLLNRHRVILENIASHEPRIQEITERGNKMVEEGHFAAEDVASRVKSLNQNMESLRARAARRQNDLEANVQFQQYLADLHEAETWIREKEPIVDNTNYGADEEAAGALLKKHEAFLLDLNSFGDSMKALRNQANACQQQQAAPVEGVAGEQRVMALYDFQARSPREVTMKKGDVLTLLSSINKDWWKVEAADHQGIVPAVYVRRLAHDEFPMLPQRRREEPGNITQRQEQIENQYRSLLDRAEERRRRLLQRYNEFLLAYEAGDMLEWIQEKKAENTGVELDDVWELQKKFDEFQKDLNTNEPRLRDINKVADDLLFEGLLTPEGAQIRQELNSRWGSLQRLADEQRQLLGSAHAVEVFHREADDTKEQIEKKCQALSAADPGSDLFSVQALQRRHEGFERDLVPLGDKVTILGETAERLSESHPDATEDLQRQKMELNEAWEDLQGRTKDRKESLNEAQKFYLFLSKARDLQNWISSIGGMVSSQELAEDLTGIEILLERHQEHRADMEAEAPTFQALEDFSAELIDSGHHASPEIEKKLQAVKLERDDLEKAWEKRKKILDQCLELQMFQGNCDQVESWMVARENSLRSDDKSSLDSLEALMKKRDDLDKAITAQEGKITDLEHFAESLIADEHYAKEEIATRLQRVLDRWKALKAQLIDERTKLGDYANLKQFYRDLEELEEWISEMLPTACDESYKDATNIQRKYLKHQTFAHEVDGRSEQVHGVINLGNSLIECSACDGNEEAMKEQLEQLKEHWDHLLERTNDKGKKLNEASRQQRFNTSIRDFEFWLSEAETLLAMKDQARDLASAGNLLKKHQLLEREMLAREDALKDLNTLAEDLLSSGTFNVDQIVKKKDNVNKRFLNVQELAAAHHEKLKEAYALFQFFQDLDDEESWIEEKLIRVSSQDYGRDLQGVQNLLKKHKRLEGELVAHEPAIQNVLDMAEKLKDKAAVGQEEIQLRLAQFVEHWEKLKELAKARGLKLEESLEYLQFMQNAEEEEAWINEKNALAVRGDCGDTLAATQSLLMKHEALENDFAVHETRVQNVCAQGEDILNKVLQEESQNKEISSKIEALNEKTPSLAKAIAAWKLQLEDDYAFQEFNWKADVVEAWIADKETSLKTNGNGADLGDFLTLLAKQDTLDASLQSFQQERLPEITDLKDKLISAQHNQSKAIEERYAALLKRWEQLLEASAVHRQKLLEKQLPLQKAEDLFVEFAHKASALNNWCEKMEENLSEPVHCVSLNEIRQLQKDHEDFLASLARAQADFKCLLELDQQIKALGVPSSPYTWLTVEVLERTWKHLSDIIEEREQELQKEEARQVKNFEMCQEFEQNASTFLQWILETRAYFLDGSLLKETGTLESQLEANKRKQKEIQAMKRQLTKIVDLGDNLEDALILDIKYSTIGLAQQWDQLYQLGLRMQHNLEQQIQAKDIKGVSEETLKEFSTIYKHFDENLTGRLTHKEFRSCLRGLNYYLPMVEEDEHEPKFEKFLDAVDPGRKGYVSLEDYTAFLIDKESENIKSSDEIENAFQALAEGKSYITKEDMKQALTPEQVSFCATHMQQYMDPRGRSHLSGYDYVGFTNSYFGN
# T6 sequence (P11277 2-2137, chain 2 of 2): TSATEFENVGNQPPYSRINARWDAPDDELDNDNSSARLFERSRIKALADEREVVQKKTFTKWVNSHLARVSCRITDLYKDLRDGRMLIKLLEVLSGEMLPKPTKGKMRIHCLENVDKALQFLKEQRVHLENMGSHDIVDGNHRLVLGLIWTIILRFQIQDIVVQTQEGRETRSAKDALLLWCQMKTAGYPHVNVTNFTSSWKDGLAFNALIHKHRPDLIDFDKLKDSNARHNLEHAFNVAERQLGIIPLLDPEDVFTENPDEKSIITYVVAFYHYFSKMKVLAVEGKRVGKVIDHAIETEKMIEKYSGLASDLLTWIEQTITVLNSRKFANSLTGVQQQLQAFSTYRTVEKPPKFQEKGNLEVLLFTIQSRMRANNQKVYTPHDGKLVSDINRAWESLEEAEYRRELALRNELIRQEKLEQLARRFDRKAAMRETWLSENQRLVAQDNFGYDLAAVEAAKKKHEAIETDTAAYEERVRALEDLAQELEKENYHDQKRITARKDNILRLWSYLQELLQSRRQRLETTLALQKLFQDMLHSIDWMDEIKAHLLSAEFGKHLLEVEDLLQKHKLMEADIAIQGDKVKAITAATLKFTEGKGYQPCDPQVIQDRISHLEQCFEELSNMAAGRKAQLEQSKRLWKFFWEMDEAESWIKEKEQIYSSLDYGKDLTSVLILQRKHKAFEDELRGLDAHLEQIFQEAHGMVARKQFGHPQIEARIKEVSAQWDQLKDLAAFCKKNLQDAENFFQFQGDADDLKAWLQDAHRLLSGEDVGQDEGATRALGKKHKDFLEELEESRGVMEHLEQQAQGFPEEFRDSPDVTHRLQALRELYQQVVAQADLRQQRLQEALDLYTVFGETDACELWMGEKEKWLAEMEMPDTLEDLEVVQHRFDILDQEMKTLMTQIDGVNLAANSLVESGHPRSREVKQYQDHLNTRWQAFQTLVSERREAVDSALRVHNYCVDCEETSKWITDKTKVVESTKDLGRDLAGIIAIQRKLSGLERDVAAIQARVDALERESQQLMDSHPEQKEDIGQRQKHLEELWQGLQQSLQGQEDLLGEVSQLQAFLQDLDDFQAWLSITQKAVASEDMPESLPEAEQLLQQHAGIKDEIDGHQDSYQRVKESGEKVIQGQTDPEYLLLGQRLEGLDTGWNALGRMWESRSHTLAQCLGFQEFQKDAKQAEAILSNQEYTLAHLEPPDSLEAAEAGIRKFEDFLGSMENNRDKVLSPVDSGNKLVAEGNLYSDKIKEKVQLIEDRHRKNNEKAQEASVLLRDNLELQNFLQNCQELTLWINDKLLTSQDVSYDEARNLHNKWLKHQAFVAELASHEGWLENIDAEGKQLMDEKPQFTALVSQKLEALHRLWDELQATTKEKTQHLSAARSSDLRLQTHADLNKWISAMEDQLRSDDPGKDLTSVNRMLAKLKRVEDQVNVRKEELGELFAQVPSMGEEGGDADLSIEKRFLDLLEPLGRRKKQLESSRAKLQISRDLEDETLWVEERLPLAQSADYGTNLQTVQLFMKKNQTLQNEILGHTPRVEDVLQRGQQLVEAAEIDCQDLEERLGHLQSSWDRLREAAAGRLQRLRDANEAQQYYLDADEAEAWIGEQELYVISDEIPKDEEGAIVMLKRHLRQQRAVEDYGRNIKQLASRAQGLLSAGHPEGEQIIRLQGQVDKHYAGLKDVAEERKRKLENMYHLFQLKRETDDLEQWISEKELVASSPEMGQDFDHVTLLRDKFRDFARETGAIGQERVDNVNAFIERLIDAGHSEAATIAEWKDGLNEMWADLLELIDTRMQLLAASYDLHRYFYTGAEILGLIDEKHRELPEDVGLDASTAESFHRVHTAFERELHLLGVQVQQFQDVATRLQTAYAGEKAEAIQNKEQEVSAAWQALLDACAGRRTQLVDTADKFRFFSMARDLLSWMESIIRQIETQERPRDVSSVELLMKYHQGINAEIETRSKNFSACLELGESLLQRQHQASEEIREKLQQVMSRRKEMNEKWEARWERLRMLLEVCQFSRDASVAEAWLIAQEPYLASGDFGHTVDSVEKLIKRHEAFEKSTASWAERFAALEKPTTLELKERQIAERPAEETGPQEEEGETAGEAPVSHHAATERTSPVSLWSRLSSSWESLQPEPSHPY
# T4 sequence (P00698 19-147): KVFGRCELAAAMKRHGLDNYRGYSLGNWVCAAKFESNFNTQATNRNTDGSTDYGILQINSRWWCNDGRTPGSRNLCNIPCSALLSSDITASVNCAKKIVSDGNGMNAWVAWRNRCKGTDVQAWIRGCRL
# T2 sequence (P01942 2-142 limits assumed, chain 1 of 2): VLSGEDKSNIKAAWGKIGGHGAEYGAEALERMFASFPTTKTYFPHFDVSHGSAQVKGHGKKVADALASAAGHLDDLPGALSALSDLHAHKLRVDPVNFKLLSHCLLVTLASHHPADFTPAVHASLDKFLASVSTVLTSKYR
# T2 sequence (P02088 2-147 limits assumed, chain 2 of 2): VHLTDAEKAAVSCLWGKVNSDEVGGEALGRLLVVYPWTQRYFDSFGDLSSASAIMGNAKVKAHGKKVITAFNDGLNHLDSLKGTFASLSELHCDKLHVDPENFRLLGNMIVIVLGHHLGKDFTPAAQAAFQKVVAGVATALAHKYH
binder,measurement,setting,value
"mAb A2B5 (antibody, mouse IgM, V domains shown, Mouse IgM kappa) VH: EVKLVESGGGLVQPGGSLRLSCATSGFTFSDFYMEWVRQPPGKRLEWIAASRNKANDYTTEYSASVKGRFIVSRDTSQSILYLQMNALRAEDTAIYYCARDARQLGLPAWFAYWGQGTLVTVSA VL: QIVLTQSPAIMSASPGEKVTISCSASSSVSYMYWYQQKPGSSPKPWIYRTSNLASGVPARFSGSGSGTSYSLTISSMEAEDAATYYCQQYHSYPLTFGAGTKLELKR",binding result,mouse albumin,no binding (tested: mAbs at 2 µg/ml)
same,binding result,mouse hemoglobin,no binding (tested: mAbs at 2 µg/ml)
same,binding result,[1],no binding (tested: mAbs at 2 µg/ml)
same,binding result,hen egg lysozyme,no binding (tested: mAbs at 2 µg/ml)
same,binding result,mouse transferrin,no binding (tested: mAbs at 2 µg/ml)
same,binding result,human RBC spectrin [2],no binding (tested: mAbs at 2 µg/ml)
"monoclonal antibody SCH94.03 (antibody, V domains shown) VH: QVQLQQPGTELVKPGASVKLSCKASGYTFTSYWMHWVKQRPGQGLEWIGNINPSNGGTNYNEKFKSKATLTVDKSSSTAYMQLSSLTSEDSAVYYCARRAPYYGSRNFDYWGQGTTLTVSS VL: DIQMTQTTSSLSASLGDRVTISCRASQDISNYLNWYQQKPDGTVKLLIYYTSRLHSGVPSRFSGSGSGTDYSLTISNLEQEDIATYFCQQGNTLPWTFGGGTKLEIKR",binding result,[3],no binding
"mAb O1 (antibody, V domains shown, Mouse IgM kappa; Entries may include the leader peptide; The hybridoma also makes the MOPC21 kappa chain; also called 01) VH: QVQLQQSGPELVKPGALVKISCKASGYTFTSYDINWVKQRPGQGLEWIGWIYPGDGSTKYNEKFKGKATLTADKSSSTAYMQLSSLTSENSAVYFCARGARFYWYFDVWGAGTTVTVSS VL: DVQITQSPSYLAASPGETITINCRASKSISKYLAWYQEKPGKTNKLLIYSGSTLQSGIPSRFSGSGSGTDFTLTISSLEPEDFAMYYCQQHNEYPYTFGGGTKLEIKR",binding result,human RBC spectrin [4],binds
